Source: a protein production outcome set (Wang et al. 2014)

Test: label from the status in PepcDB records
In the case of “MSMECVVQGIIETQHVEALEILLQGLCGVQRERLRVHELCLRSGPNLGVVSSEVRLLCDLDQPEPTWTVKHVGGAMRGAGADQISVLVRNMIESKVSKNALRMFYALGYKLDHELLKVGFAFHFQRTAHISVSVSSVNKMPKVHAIDEAVPVTPGMQIVDVTAPATSENYSEVAAAVSSFCEFLAPLVHLSKPSISTGVVPTAAAAAASLMSDGGGTTL”, the protein production is reported as “failed”. With “MSMELFEVHEGKAKVLVPKAKTIYDSPVFYNPRMAPNRDVVVLLLNVLKPKIVLDALSATGIRGIRFALETPAEEIWMNDINELAYELMKKNVLLNFKGTLKENAKRAIFEGEKTIVINNDDANRLMAEKHRYFHFIDLDPFGSPMEFLDTALRSVKRKGILGVTATDGAPLCGAHPKACLRKYLAVPLRGELCHEVGTRILVGVIARYAAKYDLGMEVLLAYYKDHYFRAFVKLKDGAKKGDETLENLGYVYFDEKTGRFEVEKSFLSTRPNAYGPLWLGPLKNEKVVGEMLELLVSGFEVANYREVLKLLHMLHEELDIPLFYDTHALGKRLKIEPKKLGEIIKELKSMGYEATRTHFSPTGIKTNAPYEVFVEVMRKN” the protein production was “failed”. In the case of “MSMIRLTVEETNLLSIYNEGGKRALIENVNAALPYMDADMRELAKRTLSKVDALTEAEFAELPIYAADEV”, the protein production is reported as “failed”. For “MSMKKQFALFSTLLLLGSSMPVGAFAEGNNLVAENSSVAETTAEATTAEATETTATSETTEATEESTTETESSTESSESATTESTETSGTETTDSTTDSTSTSTTESTTDSTSTSTTESTTDSTSTSTTESSTTPTTTPSSSKEQPKPGTSTSESKQPAKPVTPTAPAEKPVEQPAASTPQPEIVPPVTNETVGLVEDDETFTVSKTKKTEEFIQEIGESARKVAKDKNLYASVMIAQAILESGSGNSKLSQKPNYNLFGIKGDYKGQSVSFITYEDNGFGNLYTVEAKFRQYPTYKESMEDYAKLLKNGLDSNKDFYHGVWKTEAKSYKEATRFLTGKYATDKDYHKKLNALIKTYDLTYYDKEKATVEPMESNFPAYNGKNYDTFNSYAWGNCTQYVYNRITQLGKRVDLTMGNGQDWGETGRARGYKVSRTPKAGAAVSFPAGVLGADNTYGHVAFVEKVFKDGSILISEMNVKGLNVVSTRTISADETHLMNYIVPKDK”, the protein production was “failed”. In the case of “MSMLKKTKEFFGLAPYEAEHEDAYYADEPRYEGTAAYAPEYRERDYGYAPEAPAPVAPSPAPRSYQSTIVPVELHSFEDAQVIGGAFRDGDAVVFDMSLLSREEARRIVDFAAGLCFALRGKMQKIDSVTFAVVPELSNISTSELERAARIRLEHHHHHH”, the protein production is reported as “not failed”. With “MSNAITMGIFWHLIGAASAACFYAPFKKVKKWSWETMWSVGGIVSWIILPWAISALLLPNFWAYYSSFSLSTRLPVFLFGAMWGIGNINYGLTMRYLGMSMGIGIAIGITLIVGTLMTPIINGNFDVLISTEGGRMTLLGVLVALIGVGIVTRAGQLKERKMGIKAEEFNLKKGLVLAVMCGIFSAGMSFAMNAAKPMHEAAAALGVDPLYVALPSYVVIMGGGAIINLGFCFIRLAKVKDLSLKADFSLAKSLIIHNVLLSTLGGLMWYLQFFFYAWGHARIPAQYDYISWMLHMSFYVLCGGIVGLVLKEWNNAGRRPVTVLSLGCVVIIVAANIVGIGMAN” the protein production was “failed”. With “MSNANQKITTFLMFEGKAEEAMNFYTSLFDQSEIVSISRYDENGPGKEGTVIHATFTLNGQEFMCIDSYVNHNFTFTPAMSLYVTCETEEEIDTVFHKLAQDGAILMPLGSYPFSKKFGWLNDKYGVSWQLTLAE” the protein production was “not failed”. For “MSNEHTRPPLPPFTRESAIEKVRLAEDGWNTREPEKIALAYTVDTQWRNRAEFANNREEARDFLTRKWKKELDYRLIKELWAFTDNRIAVRYAYEWHDDSGNWFRSYGNENWEFEADGLMHRRFACINDMPIKESERKFHWPLGRRPDDHPGLTELGLLEHHHHHH”, the protein production was “failed”. With “MSNEMYYVQASDPAILEKGECGGAVTALFKYLLDKGIVDGVLALKKGVDVYDAIPTFVTSSEDLLSTAGSLHCAPTMWGGIIKEYLQDAKIAVPVKPCDMRAIVELAKRAQINLDNVYMIGLNCGGTVPPKTAMEMIKLFYEVDPKDVVKEEIDKGKFIIVMNDGSHKEVKMHDLEDNGYGRRVNCQRCDEKIPRKADIAAGNWGVIGEDAGKYTFMEVCTEKGKQLLEDAEKDGYIKKKSPNPKGIEIRAKVESSMLKMGEDYKNKWLEEEYPTIEEWNRQWNKCIKCYGCRDVCPVCFCRECALNADYLDSGSIPPNPIMFQGVRMSHMAFSCVNCGQCEDVCPMEIPVARIFHKVQEKTRKELGYRPGVDDEAPPALGGSCPTQ” the protein production was “failed”. In the case of “MSNGGLSIDEKEGLIDKDEVMIRRMKNRERQRRYRARKRMREEEAGNDDNLSFETMGKQEEEEEEDEGLEFNGPSGYVENFVRRVYCDRNWKKEARRAHLIMNKAQDSSCESVKRKIRPHRRDWKAEARKKKT”, the protein production is reported as “failed”. For “MSNGIVIIGSGFAARQLVKNIRKQDATIPLTLIAADSMDEYNKPDLSHVISQGQRADDLTRQTAGEFAEQFNLHLFPQTWVTDIDAEARVVKSQNNQWQYDKLVLATGASAFVPPVPGRELMLTLNSQQEYRACETQLRDARRVLIVGGGLIGSELAMDFCRAGKAVTLIDNAASILASLMPPEVSSRLQHRLTEMGVHLLLKSQLQGLEKTDSGIQATLDRQRNIEVDAVIAATGLRPETALARRAGLTINRGVCVDSYLQTSNTDIYALGDCAEINGQVLPFLQPIQLSAMVLAKNLLGNNTPLKLPAMLVKIKTPELPLHLAGETQRQDLRWQINTERQGMVARGVDDADQLRAFVVSEDRMKEAFGLLKTLPM”, the protein production was “failed”. In the case of “MSNGTPQKTKLHFPHTYALIFFIIILAALASYFIPSGEFKRVEEDGQTVIVQGSYKQTDAGPVGFFEMFKAIPEGMIQSADIIFYIFLIGGAFGIIHQTGMIRAGVHVLVQRLKKRGFLLIPVTMFVFSIGGATIGLSEETIIFIPIGIAVARALGYDSMTGLAMISLGAAAGFTGGMLNPFTVGIAQTIAEVPVFSAFGYRLAVYAAMLGFSIFYVMRYAQQVKAHPNTGLMYGSETEINEETAAGHADLSFTGRHGLVLLITALGFGINMFGVFQWGWFLSELSAGFLIIGFAAGLAGGRGINNTFHSFVDGMKQVVYGALIVGFARAIVIVLENGHIIDTIINSLASAISSLPNEISAIGMFAVQIAINTFIPSGSGQAATTMPLMAPLADLLGFERQIAVFAYQYGDGITNSIIPTSGVLLASLSIAGVPYERWVKFVWKLIAGWIIIGAAAIVIAMIIGIK”, the protein production is reported as “failed”. With “MSNIECVMFDCDGTLVDSEVLCCRAYVVMFAHYDIHLSLEEVIKRFKGVKLNEIVARVSQENGLDEPIEKLEKLYRAEVARLFDAELQPIAGAKALLEQITLPVCVVSNGPVSKMQHSLGLTGLLPFFEDKLYSGYDIQRWKPDPTLIYHAAEKMHVAAERCILVEDSAAGTHAGIAAGIPVYYYCADPHNQPIHHPLVTMFDDMQQLPDLWRERGWQITSH” the protein production was “failed”. With “MSNKLLLVFALIGIIVVFSCGLFLPIPIGYRVSMLTAGVIMSVVFSIIIPFDRKHIVRKKGNKIDFTKTKVYFRWNVFDTISVCLALYACICVQVLIFLVPMGFTIQNPYVQFFTNQSQLWVFIAIAYLISRISLTLKGIKEIKNHGADWD” the protein production was “failed”. For “MSNKPASQQTRLTDWLIFLAVPFFFSSNVIFGRGVVGEVSPFIAAFIRWMGSTLIIAPFMIADWRNCLAFVRDKMLLWLVLGILGMGICGGVVYWGLTMTTAANGTLIYTTSSLFIILFQRIFQGRPIRKLEVAGMVIAFAGVAAIVLKGDISALRHMNFNIGDFAILTAAIAFAIYSLLLRDPAARQMASFSLFGLIAFSGALVLLPPAALELAQGGMLPATGAAWAKIGGIILFASLLAFYCFTHTVRVFGPATAGITLYMMPPVSILMATIFLGETFETYHAIGIVLVTGGVILATAPIGRKR”, the protein production was “failed”. In the case of “MSNLISRILTALIFGFITLCLTWVGGTLFFLFVWVIGGFILYEWMSITKEKWHVLQKILASVFYLVFGAFLISNASASLIFCILIALAALLAIGPMRKSVWVFFGFLYVCFPVVALSFLRGHEPLGFWVVIFLFTIVWGTDIAGYFSGRAFGGPKLAPQFSPNKTWMGAIGGTFVGVSGGILIAFQFFDLNSAVFFVLLLALILSIVSQMSDLGQSWLKRQFSVKDSGSLLPGHGGFMDRMDGLVGAAFLLYLIGSFMSNMDTPFNLFCMV”, the protein production is reported as “failed”. In the case of “MSNMEKHLFNLKFAAKELSRSAKKCDKEEKAEKAKIKKAIQKGNMEVARIHAENAIRQKNQAVNFLRMSARVDAVAARVQTAVTMGKVTKSMAGVVKSMDATLKTMNLEKISALMDKFEHQFETLDVQTQQMEDTMSSTTTLTTPQNQVDMLLQEMADEAGLDLNMELPQGQTGSVGTSVASAEQDELSQRLARLRDQV”, the protein production is reported as “not failed”. With “MSNNSKISWTTTTWNVTAGCDPISDGCKNCYARMMAERLKAMGQAKYQNGFIPTIHSECLNEPFGWKGNKLVFVVSMGDLFHKDIPFDFIDKVIEVITKCPQHTFQILTKRAERMYEYFSTHAIPENVWLGVTVENQKVKGRIDYLKKLDAPVRFLSCEPLLEDLGTLDLSDIDWVIVGGESGNRARKVEKDWILNIKSQCDASTSTAFFFKQWGTWGADGVKRSAKENGCLLDGKEYHAYPTPRKIKPLEHHHHHH” the protein production was “not failed”. For “MSNSMLDKNKAILTGGGALLLGLIVLFYLAYRPKAEVLQGFLEAREYSVSSKVPGRIEKVFVKKGDHIKKGDLVFSISSPELEAKLAQAEAGHKAAKALSDEVKRGSRDETINSARDVWQAAKSQATLAKETYKRVQDLYDNGVASLQKRDEAYAAYESTKYNESAAYQKYKMALGGASSESKIAAKAKESAALGQVNEVESYLKDVKATAPIDGEVSNVLLSGGELSPKGFPVVLMIDLKDSWLKISVPEKYLNEFKVGKEFEGYIPALKKSTKFRVKYLSVMGDFATWKATNNSNTYDMKSYEVEAIPLEELENFRVGMSVLVTIKP”, the protein production was “failed”. For “MSNSQWVPVSLNEYLAHLPMSDEQRAELASCTTFAELHERLSAQPVTDPAEAAQASVGRRLTLSADDLEDAEMLGVDASGRLCLKATPPIRRTKVVPEPWRTNILVRGWRRLTGKSNPPKPDHSDLPRDLPKSRWRTVGSIRRYILLILMLGQTIVAGSYMKGILPYQGWSLVSLDEITRQTFVQTALQVLPYALQTSILLLFGILFCWVSAGFWTALMGFLELLTGRDKYRISGASAGNEPIEAGARTALVMPICNEDVPRVFAGLRATFESVAATGNLDRFDFFVLSDTNETDIAVAEQQAWLDVCRETKGFGSIFYRRRRRRVKRKSGNLDDFCRRWGGEYRYMVVLDADSVMSGECLTSLVRLMEATPDAGIIQTAPRASGMDTLYARMQQFATRVYGPLFTAGLHFWQLGESHYWGHNAIIRMKPFIEHCALAPLPGKGAFAGAILSHDFVEAALMRRAGWGVWIAYDLPGSYEELPPNLLDELKRDRRWCHGNLMNFRLFLVKGMHPVHRAVFLTGVMSYLSAPLWFFFLVLSTALLAVNTLMEPTYFLEPRQLYPLWPQWHPERAVALFSTTIVLLFLPKLLSVILIWAKGAKGFGGKFKVTVSMLLEMLFSVLLAPVRMLFHTRFVLAAFLGWAATWNSPQRDDDSTPWLEAVKRHGPQTLLGACWALLVFWLNPSFLWWLAPIVVSLMLSIPVSVISSRTNLGLKARDEKFFLIPEEFEPPQELVSTDQYTHENRWHALKQGFIRAVVDPRQNALACALATSRHRQAQPIEVVRMERVDHALKVGPAKLDNQHRLMLLSDPVALGRLHERVWSEGHEEWLAAWRASIEADPHAPLLPLQPVVKAPEPVLV”, the protein production was “failed”. With “MSNSSQYYTRTAQFLHWIMAIIFISAWIIGFYSGNFLNYETDGSFKGDVITLHKNIATTIIFLVMIRIFWRYTHPTPELPATMSPLMKKLAHLGHLALYVILIALPISGCFYSWSAGHPAPVLYLFNIPQLIGENPEIMAIAKPVHVYLSWFAGLMVAGHILAALKHHFIDKDNVLKSMIKQSR” the protein production was “failed”.
